The values that follow come from the supplement of paper PMC5998384.

Data set [1] has as its system HeLa Kyoto. In words: thermal stability score vs G1/S (z-score of summed log2 fold changes over temperatures); higher = more thermally stable than in G1/S.
Data set [2] deals with HeLa Kyoto. Put plainly: solubility change mitosis vs G1/S (difference of NP-40 vs SDS log2 ratios) (log2 ratio difference); higher = more soluble in mitosis.
Data set [3] concerns HeLa Kyoto. Put plainly: solubility in G1/S (NP-40 vs SDS abundance) (log2 ratio); higher = more soluble. The following applies: cell cycle stage: G1/S.
Setting [4] is: cell cycle stage: early G1 (4.5 h after nocodazole release).
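Wherever solubility change mitosis vs G1/S (difference of NP-40 vs SDS log2 ratios) is given: synchronized HeLa Kyoto cells (double thymidine block for G1/S, nocodazole release for mitosis), protein amounts in NP-40 versus SDS lysates quantified by mass spectrometry, three biological replicates.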
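Wherever solubility in G1/S (NP-40 vs SDS abundance) is given: HeLa Kyoto cells arrested at G1/S by double thymidine block, proteins quantified by TMT10plex mass spectrometry in mild NP-40 versus SDS extracts, three biological replicates.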
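Wherever thermal stability score vs G1/S (z-score of summed log2 fold changes over temperatures) is given: synchronized HeLa Kyoto cells, proteins quantified by TMT10plex mass spectrometry, three biological replicates, mitosis taken 0.5 h after nocodazole release, G1/S directly after double thymidine block.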

With “MLLAQINRDSQGMTEFPGGGMEAQHVTLCLTEAVTVADGDNLENMEGVSLQAVTLADGSTAYIQHNSKDAKLIDGQVIQLEDGSAAYVQHVPIPKSTGDSLRLEDGQAVQLEDGTTAFIHHTSKDSYDQSALQAVQLEDGTTAYIHHAVQVPQSDTILAIQADGTVAGLHTGDATIDPDTISALEQYAAKVSIDGSESVAGTGMIGENEQEKKMQIVLQGHATRVTAKSQQSGEKAFRCEYDGCGKLYTTAHHLKVHERSHTGDRPYQCEHAGCGKAFATGYGLKSHVRTHTGEKPYRCSEDNCTKSFKTSGDLQKHIRTHTGERPFKCPFEGCGRSFTTSNIRKVHVRTHTGERPYYCTEPGCGRAFASATNYKNHVRIHTGEKPYVCTVPGCDKRFTEYSSLYKHHVVHTHSKPYNCNHCGKTYKQISTLAMHKRTAHNDTEPIEEEQEAFFEPPPGQGEDVLKGSQITYVTGVEGDDVVSTQVATVTQSGLSQQVTLISQDGTQHVNISQADMQAIGNTITMVTQDGTPITVPAHDAVISSAGTHSVAMVTAEGTEGEQVAIVAQDLAAFHTASSEMGHQQHSHHLVTTETRPLTLVATSNGTQIAVQLGEQPSLEEAIRIASRIQQGETPGLDD [ZNF143]”, the thermal stability score in the data set on HeLa Kyoto [1] (setting [4]) is 0.385; in the data set on HeLa Kyoto [1] (cell cycle stage: mitosis), 0.819. Further, the “solubility change mitosis (log2)” value in the data set with HeLa Kyoto [2] was found to be 0.313. In addition, the “solubility in G1/S (log2)” value in the data set with HeLa Kyoto [3] is -0.143.

Consider “MLLWPLRGWAARALRCFGPGSRGSPASGPGPRRVQRRAWPPDKEQEKEKKSVICVEGNIASGKTTCLEFFSNATDVEVLTEPVSKWRNVRGHNPLGLMYHDASRWGLTLQTYVQLTMLDRHTRPQVSSVRLMERSIHSARYIFVENLYRSGKMPEVDYVVLSEWFDWILRNMDVSVDLIVYLRTNPETCYQRLKKRCREEEKVIPLEYLEAIHHLHEEWLIKGSLFPMAAPVLVIEADHHMERMLELFEQNRDRILTPENRKHCP [TK2]”, for which the thermal stability score in the data set on HeLa Kyoto [1] (setting [4]) was -2.93; with HeLa Kyoto [1] (cell cycle stage: mitosis) it was -2.11. In addition, the “solubility change mitosis (log2)” value in the data set on HeLa Kyoto [2] was 0.0925. Moreover, the “solubility in G1/S (log2)” value with HeLa Kyoto [3] is -0.273.

As to “MLRGPWRQLWLFFLLLLPGAPEPRGASRPWEGTDEPGSAWAWPGFQRLQEQLRAAGALSKRYWTLFSCQVWPDDCDEDEEAATGPLGWRLPLLGQRYLDLLTTWYCSFKDCCPRGDCRISNNFTGLEWDLNVRLHGQHLVQQLVLRTVRGYLETPQPEKALALSFHGWSGTGKNFVARMLVENLYRDGLMSDCVRMFIATFHFPHPKYVDLYKEQLMSQIRETQQLCHQTLFIFDEAEKLHPGLLEVLGPHLERRAPEGHRAESPWTIFLFLSNLRGDIINEVVLKLLKAGWSREEITMEHLEPHLQAEIVETIDNGFGHSRLVKENLIDYFIPFLPLEYRHVRLCARDAFLSQELLYKEETLDEIAQMMVYVPKEEQLFSSQGCKSISQRINYFLS [TOR3A]”, the values for the thermal stability score in the data set with HeLa Kyoto [1] (setting [4]) and in the data set on HeLa Kyoto [1] (cell cycle stage: mitosis) were 2.36 and 1.03, respectively. In addition, the “solubility change mitosis (log2)” value in the data set on HeLa Kyoto [2] is -0.118. The “solubility in G1/S (log2)” value in the data set with HeLa Kyoto [3] was 0.0484.

“MNPTETKAIPVSQQMEGPHLPNKKKHKKQAVKTEPEKKSQSTKLSVVHEKKSQEGKPKEHTEPKSLPKQASDTGSNDAHNKKAVSRSAEQQPSEKSTEPKTKPQDMISAGGESVAGITAISGKPGDKKKEKKSLTPAVPVESKPDKPSGKSGMDAALDDLIDTLGGPEETEEENTTYTGPEVSDPMSSTYIEELGKREVTIPPKYRELLAKKEGITGPPADSSKPIGPDDAIDALSSDFTCGSPTAAGKKTEKEESTEVLKAQSAGTVRSAAPPQEKKRKVEKDTMSDQALEALSASLGTRQAEPELDLRSIKEVDEAKAKEEKLEKCGEDDETIPSEYRLKPATDKDGKPLLPEPEEKPKPRSESELIDELSEDFDRSECKEKPSKPTEKTEESKAAAPAPVSEAVCRTSMCSIQSAPPEPATLKGTVPDDAVEALADSLGKKEADPEDGKPVMDKVKEKAKEEDREKLGEKEETIPPDYRLEEVKDKDGKPLLPKESKEQLPPMSEDFLLDALSEDFSGPQNASSLKFEDAKLAAAISEVVSQTPASTTQAGAPPRDTSQSDKDLDDALDKLSDSLGQRQPDPDENKPMEDKVKEKAKAEHRDKLGERDDTIPPEYRHLLDDNGQDKPVKPPTKKSEDSKKPADDQDPIDALSGDLDSCPSTTETSQNTAKDKCKKAASSSKAPKNGGKAKDSAKTTEETSKPKDD [CAST]”: the thermal stability score with HeLa Kyoto [1] (setting [4]) is -1.5; in the data set with HeLa Kyoto [1] (cell cycle stage: mitosis), -2.61. Further, in the data set on HeLa Kyoto [2], the “solubility change mitosis (log2)” value turned out to be 0.0186. Moreover, in the data set with HeLa Kyoto [3], the “solubility in G1/S (log2)” value was determined as 0.36.

On to “MPDIIWVFPPQAEAEEDCHSDTVRADDDEENESPAETDLQAQLQMFRAQWMFELAPGVSSSNLENRPCRAARGSLQKTSADTKGKQEQAKEEKARELFLKAVEEEQNGALYEAIKFYRRAMQLVPDIEFKITYTRSPDGDGVGNSYIEDNDDDSKMADLLSYFQQQLTFQESVLKLCQPELESSQIHISVLPMEVLMYIFRWVVSSDLDLRSLEQLSLVCRGFYICARDPEIWRLACLKVWGRSCIKLVPYTSWREMFLERPRVRFDGVYISKTTYIRQGEQSLDGFYRAWHQVEYYRYIRFFPDGHVMMLTTPEEPQSIVPRLRTRNTRTDAILLGHYRLSQDTDNQTKVFAVITKKKEEKPLDYKYRYFRRVPVQEADQSFHVGLQLCSSGHQRFNKLIWIHHSCHITYKSTGETAVSAFEIDKMYTPLFFARVRSYTAFSERPL [FBXO9]”, for which the thermal stability score in the data set with HeLa Kyoto [1] (setting [4]) is 0.568; in the data set on HeLa Kyoto [1] (cell cycle stage: mitosis) it was 0.333. In addition, the “solubility change mitosis (log2)” value in the data set with HeLa Kyoto [2] came to 0.156. Besides, the “solubility in G1/S (log2)” value in the data set on HeLa Kyoto [3] is -0.365.

Consider “MPFLHGFRRIIFEYQPLVDAILGSLGIQDPERQESLDRPSYVASEESRILVLTELLERKAHSPFYQEGVSNALLKMAELGLTRAADVLLRHGANLNFEDPVTYYTALHIAVLRNQPDMVELLVHHGADVNRRDRIHESSPLDLASEEPERLPCLQRLLDLGADVNAADKHGKTALLHALASSDGVQIHNTENIRLLLEGGADVKATTKDGDTVFTCIIFLLGETVGGDKEEAQMINRFCFQVTRLLLAHGADPSECPAHESLTHICLKSFKLHFPLLRFLLESGAAYNCSLHGASCWSGFHIIFERLCSHPGCTEDESHADLLRKAETVLDLMVTNSQKLQLPENFDIHPVGSLAEKIQALHFSLRQLESYPPPLKHLCRVAIRLYLQPWPVDVKVKALPLPDRLKWYLLSEHSGSVEDDI [ASB6]”, for which the thermal stability score worked out at 0.0535 in the data set on HeLa Kyoto [1] (setting [4]) and 0.637 in the data set with HeLa Kyoto [1] (cell cycle stage: mitosis). In addition, the “solubility change mitosis (log2)” value in the data set with HeLa Kyoto [2] is 0.0228. In the data set with HeLa Kyoto [3], the “solubility in G1/S (log2)” value turned out to be 0.206.
